Data from patent US20020164304A1 (TRANSGENE, published 2002).

Target: T1, human α1-antitrypsin (human, UniProt P01009 25-418)
T1 construct: Secreted recombinant human α1AT found in culture supernatant; also called α1AT; human α1AT
Assay: supernatant incubated with active NE (3, 30, 300 nM; 30 min, 23°), then immunoprecipitation, SDS-PAGE and autoradiography
Experimental: (B) At various times after infection, the lungs were minced, incubated for 1 hour in methionine-free LHC-8 medium (37°), and then incubated for 24 hours in medium with (³⁵S)-methionine (1 ml medium/150 mg tissue; 500 μCi/ml). The supernatant was then evaluated by immunoprecipitation with a rabbit antibody to human α1AT (Boehringer Mannheim), SDS-polyacrylamide gels, and autoradiography as in FIG. 2E. Trichloroacetic acid-precipitable radioactivity was evaluated by immunoprecipitation (for lanes 10-15, 2×10⁶ cpm; for lanes 16-18, 1×10⁶ cpm). Autoradiogram exposures for lanes 10 to 15 were identical; lanes 16-18 were evaluated at a different time, and the exposures adjusted such that the intensity of the α1AT band without NE was similar to lane 13. The ability of the synthesized human α1AT to inhibit its natural substrate, NE, was evaluated by incubating the supernatant with various dilutions of active NE (30 min, 23°) before immmunoprecipitation.
The de novo expression of the human α1AT protein lasted at least 1 week (lane 15) and the secreted human α1AT was functional, as shown by its ability to form a complex with its natural target, human neutrophil elastase (NE) (lanes 16-18).

T1 sequence (P01009 25-418 limits assumed): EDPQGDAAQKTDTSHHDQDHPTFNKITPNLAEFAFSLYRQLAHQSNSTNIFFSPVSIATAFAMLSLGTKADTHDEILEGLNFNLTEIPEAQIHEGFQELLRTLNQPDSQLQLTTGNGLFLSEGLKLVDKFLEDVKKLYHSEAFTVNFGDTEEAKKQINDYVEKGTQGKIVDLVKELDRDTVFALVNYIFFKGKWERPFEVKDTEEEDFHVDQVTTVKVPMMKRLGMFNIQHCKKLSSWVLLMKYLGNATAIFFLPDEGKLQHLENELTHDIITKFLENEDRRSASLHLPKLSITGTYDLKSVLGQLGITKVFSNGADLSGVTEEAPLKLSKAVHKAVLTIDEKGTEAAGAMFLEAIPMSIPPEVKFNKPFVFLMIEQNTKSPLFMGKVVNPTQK

B1: human neutrophil elastase (enzyme, UniProt P08246 30-247, looked up)
chain: IVGGRRARPHAWPFMVSLQLRGGHFCGATLIAPNFVMSAAHCVANVNVRAVRVVLGAHNLSRREPTRQVFAVQRIFENGYDPVNLLNDIVILQLNGSATINANVQVAQLPAQGRRLGNGVQCLAMGWGLLGRNRGIASVLQELNVTVVTSLCRRSNVCTLVRGRQAGVCFGDSGSPLVCNGLIHGIASFVRGGCASGLYPDAFAPVAQFVNWIDSIIQ
notes: Described as active NE
binding result: binds
